The text below walks through data of US20070129537A1 (University of California, published 2007).

Ends that are not written are not given here.

The target in this assay is T1, natural proline-rich peptide ligand C3G, PPPALPPKKR (peptide SEQ ID NO: 11).
T1 peptide: PPPALPPKKR-NH2
Nature of the assay: fluorescence-based titration (excitation 300 nm, emission 348 nm), 25 C, 0.5 uM protein, 1:1 complex assumed. How it is done: The ligated product is marked with an asterisk. […] The ligation product was by far the main product and could be easily isolated by semipreparative HPLC. Referring to FIG. 6B, characterization of the product by ES-MS confirmed the identity of the SH3 ligated domain. The ligated SH3 domain was readily purified by HPLC and refolded by flash dilution in 20 mM sodium phosphate, 100 mM NaCl at pH 7.2. The ligand binding activity of the synthetic SH3 domain was evaluated using a fluorescence-based titration assay. […] Referring to FIG. 6C, the equilibrium dissociation constant for binding of the synthetic SH3 domain to the natural proline-rich peptide ligand C3G i.e., […] (peptide SEQ ID NO: 11), was 0.9 μM. […]
Fluorescence-based Ligand Binding Assay. The equilibrium dissociation binding constant of synthetic SH3 domain for ligand SEQ ID NO: 11 was obtained using a fluorescence-based titration assay. […] Excitation was at 300 nm with a 2.5 nm slit and the fluorescence emission was monitored at 348 nm through a 5 nm slit. […] The dissociation constant was determined by changes in the fluorescence of the protein solution upon addition of the corresponding peptide ligand at defined concentrations; calculations were made assuming formation of a 1:1 complex. […]

B1: synthetic c-Crk N-terminal SH3 domain obtained by native chemical ligation of peptide thioester SEQ ID NO: 9 and peptide SEQ ID NO: 10 (other)
chain: AEYVRALFDFNGNDEEDLPFKKGCILRIRDKPEEQWWNAEDSEGKRGMIPVPYVEKYG
modifications: N-terminal acetyl (Ac-AEYV...); C-terminal amide implied (peptide SEQ ID NO: 10 made on Rink-amide resin); Cys introduced at the N-terminus of SEQ ID NO: 10 (ligation site); the -SEt thioester of SEQ ID NO: 9 is lost on ligation
notes: used at 0.5 uM in 20 mM sodium phosphate, 100 mM NaCl, pH 7.2; ESMS found 6894.1 Da (calculated 6891.7 Da); also called ligated SH3 domain; synthetic SH3 domain
B1 displayed a Kd of 900 nM.

As a reminder, the Kd is the constant that tells how readily two partners part at equilibrium.
